US8815295B1, “Anti respiratory syncytial virus peptide functionalized gold nanoparticles” (Alabama State University, priority 2011, dated 2014)
Peptide text beside a SMILES is read from it.

Tested on: human epidermoid cancer (HEp-2) cells
Assay: MTT cell viability (cytotoxicity) assay
Details: 24 and 48 hours, concentrations up to 50 μg/ml
Procedure: The peptides and carboxylated gold nanoparticles were tested for cytotoxic effects on human epidermoid cancer (HEp-2) cells. Cell viability was assessed by measuring cell concentration of a tetrazolium salt (3-(4,5 dimethyl-2-yl)-5-(3-carboxy-methoxyphenyl)-2-(4-sulfophenyl)-2H-tetrazolium) […]. If cells are viable the mitochondria will reduce the MTT. The cells were grown overnight in minimal essential medium (MEM) supplemented with L-glutamine, Penicillin, streptomycin, and kanamycin. 2.7×10^5 cells/well in 100 μl were seeded into 96-well plates in MEM. Cells were allowed to grow overnight in an incubator at 37° C., with a 5% CO2 humidified atmosphere, until the carboxylated gold nanoparticles were added. […] Treated cells were further incubated at 37° C., 5% CO2 for 24, and 48 hours. At the end of the corresponding incubation time, 15 μl of MTT dye was added into each well and the plates were allowed to incubate for the next 4 hours in the dark. The reaction was then stopped with 100 μl of stop solution. The absorbance of the media was measured at 570 nm on a TECAN Sunrise enzyme-linked immunosorbent assay plate reader (TECAN, US Inc., Durham, N.C., USA). Non-treated cells in growth media were used as a control.

“VFPSDEFDASISQVNEKINQSLAFIRKSDLLHNVNAGKK (respiratory syncytial virus) [RF482]” was tested, and the “effect on cell viability” value was “no significant effect”.

In the case of `CC[C@H](C)[C@H](NC(=O)[C@H](Cc1ccccc1)NC(=O)[C@H](C)NC(=O)[C@H](CC(C)C)NC(=O)[C@H](CO)NC(=O)[C@H](CCC(N)=O)NC(=O)[C@H](CC(N)=O)NC(=O)[C@@H](NC(=O)[C@H](CCCCN)NC(=O)[C@H](CCC(=O)O)NC(=O)[C@H](CC(N)=O)NC(=O)[C@@H](NC(=O)[C@H](CCC(N)=O)NC(=O)[C@H](CO)NC(=O)[C@@H](NC(=O)[C@@H](N)CO)[C@@H](C)CC)C(C)C)[C@@H](C)CC)C(=O)N[C@@H](CCCNC(=N)N)C(=O)N[C@@H](CCCCN)C(=O)N[C@@H](CO)C(=O)N[C@@H](CC(=O)O)C(=O)O` [RF491] (H-SISQVNEKINQSLAFIRKSD-OH), the “effect on cell viability” value was “no significant effect”.
